Results: IntAct's records for PubMed 18688256

Biological target: T1, il33_human IL33 (UniProt O95760)
T1 sequence: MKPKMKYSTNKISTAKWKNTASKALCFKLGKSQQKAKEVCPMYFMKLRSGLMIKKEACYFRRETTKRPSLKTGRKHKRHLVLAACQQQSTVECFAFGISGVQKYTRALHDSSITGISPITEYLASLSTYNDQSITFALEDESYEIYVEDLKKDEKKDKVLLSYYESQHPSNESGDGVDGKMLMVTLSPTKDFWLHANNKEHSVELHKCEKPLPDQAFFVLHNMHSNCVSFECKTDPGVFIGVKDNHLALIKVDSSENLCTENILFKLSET

effect of a mutation on the interaction | Substance
decreasing interaction | Histone H2A type 1 (Homo sapiens) (from UniProt P0C0S8) E92R
decreasing interaction | Histone H2A type 1 (Homo sapiens) (from UniProt P0C0S8) E93L
